In patent publication US20260055172A1 one finds EC50 (read off the curve) data, which are given here for one substance.

The target in this test is human complement protein C1q (human) (UniProt P02745). Description: ELISA, 10 µg/ml human C1q, detection with HRP-conjugated anti-C1q antibody, antibody concentration varied.
Sequence of human complement protein C1q (human) (P02745 23-245 limits assumed, chain 1 of 3): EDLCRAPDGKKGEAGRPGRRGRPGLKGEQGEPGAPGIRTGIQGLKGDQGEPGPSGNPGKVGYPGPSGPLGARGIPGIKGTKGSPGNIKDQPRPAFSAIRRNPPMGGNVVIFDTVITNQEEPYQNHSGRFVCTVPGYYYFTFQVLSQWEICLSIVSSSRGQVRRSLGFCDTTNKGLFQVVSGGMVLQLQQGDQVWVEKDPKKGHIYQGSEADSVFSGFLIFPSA
Sequence of human complement protein C1q (human) (P02746 28-253 limits assumed, chain 2 of 3, further chain): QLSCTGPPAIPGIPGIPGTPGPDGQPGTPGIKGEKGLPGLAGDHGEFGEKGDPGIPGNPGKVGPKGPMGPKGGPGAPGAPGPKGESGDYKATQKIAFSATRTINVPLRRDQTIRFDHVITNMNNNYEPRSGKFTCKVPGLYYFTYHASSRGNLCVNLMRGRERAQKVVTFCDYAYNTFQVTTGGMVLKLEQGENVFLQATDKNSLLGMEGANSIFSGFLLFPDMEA
Sequence of human complement protein C1q (human) (P02747 29-245 limits assumed, chain 3 of 3, further chain): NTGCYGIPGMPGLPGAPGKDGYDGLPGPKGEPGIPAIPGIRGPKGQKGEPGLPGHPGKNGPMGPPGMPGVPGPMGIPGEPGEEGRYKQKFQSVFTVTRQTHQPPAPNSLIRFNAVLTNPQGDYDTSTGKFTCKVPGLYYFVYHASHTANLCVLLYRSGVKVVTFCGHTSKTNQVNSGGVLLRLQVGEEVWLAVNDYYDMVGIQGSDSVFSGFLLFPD

For the substance Rituximab (antibody), the EC50 (read off the curve) is 2 µg/mL.
